According to patent US20240325562A1, “INTERNALIZING BINDING MOLECULES” (LinXis B.V., priority 2020, published 2024):

Key:
[1] = biological target: hPDGFRB (Homo sapiens, UniProt P09619); assay: Competition assays of PDGFRB VHHs on hPDGFRB; assay type: binding; conditions: for epitope group (mutual competition): VHHs from libraries 1 and 2, four main groups
Procedure: (§1) Biparatopic VHH constructs contain two VHH which bind to a different epitope, i.e. which are non-competitive binders. To identify (a) pair(s) of non-competitive binders, competition assays were performed. In the example shown, an Alexa fluor-conjugate of the high affine VHH 13F11 was used as the reporter VHH (13F11-A647, see example 10.2). In the assay, a non-saturating amount (10 nM) of 13F11-A647 was incubated with immobilized hIGF2R-ECD in the presence or absence of 250 nM unconjugated competitor VHH to allow competition to take place.
Similar as to in example 6.1, competition assays were performed to identify unique hPDGFRB- or rPDGFRB binders. Across 10 PDGFRB-binding VHHs obtained from libraries 1 and 2 (e.g. the VHH raised against hPDGFRB), four main groups were identified being first SP01P, SP02P, SP07P and SP13P, second SP05P, SP08P and SP10P, third SP12P and SP20P and finally SP14P. All VHH within each of the first three groups mutually competed.
To evaluate whether the obtained VHHs would qualify as building blocks for multivalent VHH constructs that bind hPDGFRB as well as rPDGFRB (e.g. ‘species cross-reactive’ VHH constructs), competition assays were performed using the most promising VHHs SP02 (raised against hPDGFRB) and SP26P (raised against rPDGFRB).

[2] = biological target: T1, hIGF2R-ECD (Homo sapiens, UniProt P11717); assay: Competition assay with 13F11-A647 as reporter VHH on immobilized hIGF2R-ECD; assay type: binding; conditions: for competition with reporter VHH 13F11-A647: 10 nM 13F11-A647, 250 nM unconjugated competitor VHH; for less fluorescence intensity (decrease in binding of labelled 13F11): 10 nM labelled 13F11, 250 nM unlabelled competitor VHH
T1 construct: immobilized recombinant human extracellular domain of IGF2R (hIGF2R-ECD) was used
Procedure: With the term “compete” is meant that in a competition assay, such as for instance described in Example 6 of the present invention, the addition of a binding molecule induces a significant decrease in binding of a given VHH, i.e., the VHH to which the competing is determined. “Significant” in this respect is preferably a decrease of >5%, preferably >10% when 250 nM of a binding molecule is added to 10 nM of a fluorescence labelled VHH in an ELISA. […] The same test conditions and threshold apply to a binding molecule directed to PDGFRB when determining whether a binding molecule competes with a given VHH.
as §1

hPDGFRB, sequence (P09619 33-532 limits assumed): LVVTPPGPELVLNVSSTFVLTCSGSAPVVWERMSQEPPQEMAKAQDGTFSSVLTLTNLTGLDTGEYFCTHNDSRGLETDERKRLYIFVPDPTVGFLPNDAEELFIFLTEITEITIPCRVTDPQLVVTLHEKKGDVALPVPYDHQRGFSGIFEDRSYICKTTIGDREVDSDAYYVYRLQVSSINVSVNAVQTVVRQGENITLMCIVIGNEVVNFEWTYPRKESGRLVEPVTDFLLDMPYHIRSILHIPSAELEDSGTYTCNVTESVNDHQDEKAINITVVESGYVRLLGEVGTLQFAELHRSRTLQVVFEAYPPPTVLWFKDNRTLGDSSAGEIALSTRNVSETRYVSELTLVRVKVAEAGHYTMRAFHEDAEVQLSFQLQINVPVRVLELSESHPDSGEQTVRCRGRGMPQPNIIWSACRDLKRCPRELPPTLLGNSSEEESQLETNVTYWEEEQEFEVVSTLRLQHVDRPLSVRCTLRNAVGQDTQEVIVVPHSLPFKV

Molecule | epitope group (mutual competition) [1] | competition with reporter VHH 13F11-A647 [2] | less fluorescence intensity (decrease in binding of labelled 13F11) [2] | competition between SP02 and SP26P ([1]; IRDye800-conjugated SP26P as reporter)
SP10P: VHH single domain antibody targeting PDGFRB, SEQ ID NO: 49 (protein) VHH: EVQLVESGGGLVQAGGSLRLSCAASGRTFNGYAMGWFRQAPGKERDFVAAITWSYGYTHYAESVKGRFSISRDSANNMVYLEMNSLKPEDTAVYYCAADPKASRFRTLRRYDYWGQGTQVTVSS | second | – | – | –
SP12P: VHH single domain antibody targeting PDGFRB, SEQ ID NO: 65 (protein) VHH: EVQLVESGGGLVQAGGSLRLSCVISGRTSPTYPMGWFRQSPGNEREFVASINWSGGWRNYADSVKGRFTISRDDAKNTVYLQMNSLKPEDTAVYYCARGQYSSGTPVYAHEYAYWGQGTQVTVSS | third | – | – | –
SP20P: VHH single domain antibody targeting PDGFRB, SEQ ID NO: 113 (protein) VHH: EVQLVESGGGLVQAGGSLRLSCVISGRTSPTYPMGWFRQSPGNEREFVASINWSGGWRNYADSVKDRFTISRDDAKNTVYLQMNSLKPEDTAVYYCARGQYSSGTPVYAHEYAYWGQGTQVTVSS | third | – | – | –
13C11: VHH single domain antibody targeting IGF2R, SEQ ID NO: 297 (protein) VHH: EVQLVESGGGLVQAGGSLRLSCAASGLTFSSYTMAWYRQAPGKEREVVAAISSGDSIYHEGSVQGRFIISRDNAKNTVYLQMNSLKAEDTAVYYCRANGPGTYWGQGTQVTVSS | – | competed with 13F11 | substantially more decrease in fluorescence intensity | –
13G10: VHH single domain antibody targeting IGF2R, SEQ ID NO: 305 (protein) VHH: EVQLVESGGGLVQAGGSLRLSCAASGLTFSSYTMAWYRQAPGKEREVVAAISSGDSIYHEDSVQGRFIISRDNAKNTVYLQMNSLKAEDTAVYYCRANGPGTYWGQGTQVTVSS | – | competed with 13F11 | substantially more decrease in fluorescence intensity | –
13A12: VHH single domain antibody targeting IGF2R, SEQ ID NO: 289 (protein) VHH: EVQLVESGGGLVQAGGSLRLSCAASGIIFGANTVGWYRQVPGKERDVVASITSGDSTYYGDSVRGRFTISRDNAKNTMYLQMNSLKPEDTAIYYCRARTTDGSYWGQGTQVTVS | – | competed with 13F11 | substantially more decrease in fluorescence intensity | –
SP08P: VHH single domain antibody targeting PDGFRB, SEQ ID NO: 41 (protein) VHH: EVQLVESGGGLVQAGGSLRLSCAASGRTFNGYAMAWFRQAPGKERDFVASITWSYGYTYYADSAQGRFTISRDSAKNTVYLEMNSLKPEDTAVYYCAADPKASRFRILRQYAHWGQGTQVTVSS | second | – | – | –
SP07P: VHH single domain antibody targeting PDGFRB, SEQ ID NO: 33 (protein) VHH: EVQLVESGGGSVQTGGSLRLSCAASGRSFSTYAMAWFRQAPGKEREFVAAINRRATDTVYADSAKGRFIISRDNDKNTVYLQMDSLKTEDTAVYYCAAAKNAYDWRWDRLRDRDYWGQRGQGTQVTVSS | first | – | – | –
SP02P: VHH single domain antibody targeting PDGFRB, SEQ ID NO: 9 (protein) VHH: EVQLVESGGGLVQAGGSLRLSCAASESISSIEQMGWFRQAPGKQRALVAINTYGGRTVYTNSVEGRFTMSRDSAKNMVYLQMTSLEPEDTAVYYCYAQTTAWRGGVWGQGTQVTVSS | first | – | – | did not compete
13A8: VHH single domain antibody targeting IGF2R, SEQ ID NO: 257 (protein) VHH: EVQLVESGGGLVPAGGSLRLSCAASGRTFSNYAMGWFRQAPGKERKFVATISWSGGVTYYADSVKGRFTISRDNAKNTVYLLMNSLKPEDTAVYYCAAKRDSSSYDHRRYDYWGQGTQVTVSS | – | competed with 13F11 | substantially more decrease in fluorescence intensity | –
13E8: VHH single domain antibody targeting IGF2R, SEQ ID NO: 249 (protein) VHH: EVQLVESGGGLVQAGGSLRLSCAASRSISPMGWYRQAPGKQRELVAIMPSSGPPIYADSVQGRFTISRDNAKNTVYLQMNSLKPEDTAVYYCNVGGGYWGQGTQVTVSS | – | did not compete with 13F11 | less than 5% | –
SP13P: VHH single domain antibody targeting PDGFRB, SEQ ID NO: 73 (protein) VHH: EVQLVESGGGLVQPGGSLRLSCAASESIFSINYMAWYRQAPGKQRELVAFSIDGSSTNYVDSVRGRFTASRDNAENTLYLQMNSLKPEDTAVYYCYAQGNTWAAGVWGQGTQVTVSS | first | – | – | –
SP05P: VHH single domain antibody targeting PDGFRB, SEQ ID NO: 25 (protein) VHH: EVQLVESGGGLVQAGGSLRLSCAASGRTSFSGYAMAWFRQAPGKERDFVASITWSYGYTYYTDSAQGRFTISRDSAKNTVYLEMNSLKPEDTAVYYCAADPKASRFRILREYAYWGQGTQVTVSS | second | – | – | –
SP01P: VHH single domain antibody targeting PDGFRB, SEQ ID NO: 1 (protein) VHH: EVQLVESGGGLAQAGGSLRLSCVASGNIDSANGMAWYRQAPGKQRELVAHITSGTSYYVASVEGRFTISRANAKDTWYLQMNSLKPEDTGVYYCFPIGLSAHWSQGTQVTVSS | first | – | – | –
SP14P: VHH single domain antibody targeting PDGFRB, SEQ ID NO: 81 (protein) VHH: EVQLVESGGGLVQAGDSLRLSCVVSGLTFSRYGMGWFRQATGKEREFVGGISVGSSGTMYPNSVKGRFTISRDNAKSTVYLQMNSLKPEDTAVYFCAAIDQGSFVQQRDYRYWGQGTQVTVSS | lone VHH | – | – | –
